This passage reports Kd and fold higher antigen binding affinity than the 3E8 antibody results from patent publication US20080279847A1.

The target of assay [1] is tumor-associated glycoprotein-72 (TAG-72), used as TAG-72-positive BSM (bovine submaxillary mucin, type-1-S, Sigma) (bovine). Nature of the assay: competitive ELISA, whole IgG in COS7 culture supernatant.
Assay [2] has the same target. Nature of the assay: competitive ELISA, whole IgG expressed in animal cells, reference 3E8 whole IgG (FIG. 9).
Assay [3] has the same target. In words: competitive ELISA, whole IgG, reference 3E8.

B1: humanized antibody 3E8/BSM22 (whole IgG form) (antibody, V domains shown)
VH: QVQLVQSGAEVKKPGASVKVSCKASGYTFTDHAIHWVRQAPGQRLEWMGYFSPGNDDFKYSQKFQGRVTITADKSASTAYMELSSLRSEDTAVYYCARSWIMQYWGQGTLVTVSS
VL: DIVMTQSPDSLAVSLGERATIHCKSSQSILYSSNNKNYLAWYQQKPGQPPKLLLYWASTREAGVPDRFSGGGSGTDFTLTISSLQPEDSATYYCQQYNTYPLTFGGGTKVEIK
As to B1, the dissociation constant (Kd) in assay [1] came to 0.45 nM. Further, the fold higher antigen binding affinity than the 3E8 antibody in assay [2] and in assay [3] was 1.5 fold throughout.
